Assay results: the supplement of paper PMC10567573

B1: TTC32 (parent)
chain: YSAYIRRCACAASSDESPGSKCSP

Variants of: B1
Assay: protein stability index of a GFP-peptide fusion (GPS, HEK-293T) (PSI 1-6); higher = more stable
Settings: c terminus: a fixed tail appended
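Also: lentivirally expressed fusions sorted by FACS into six bins by GFP to DsRed ratio, PSI derived from sequencing read proportions per bin multiplied by bin number.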

Row | Variant | protein stability index
1 | A9K | 2.38
2 | A9W | 1.45
3 | A9Q | 2.25
4 | A9P | 2.16
5 | A9D | 2.58
6 | A9Y | 1.55
7 | A9T | 2.14
8 | A9C | 1.59
9 | A9I | 2.38
10 | A9R | 2.66
11 | A9M | 1.96
12 | A9S | 1.98
13 | A9N | 2.37
14 | A9G | 1.82
15 | A9F | 1.76
16 | A9L | 2.26
17 | A9V | 2.17
18 | A9E | 3.19
19 | A9H | 1.92
20 | Y4K | 2.5
21 | Y4R | 2.67
22 | Y4N | 2.85
23 | Y4P | 2.45
24 | Y4H | 2.12

Row | Variant | protein stability index
25 | Y4W | 3.57
26 | Y4G | 3.35
27 | Y4A | 2.01
28 | Y4M | 2.1
29 | Y4E | 3.34
30 | Y4F | 1.92
31 | Y4L | 2.45
32 | Y4Q | 2.65
33 | Y4V | 3.07
34 | Y4I | 2.08
35 | Y4T | 2.24
36 | Y4D | 3.36
37 | Y4C | 2.4
38 | Y4S | 2.29
39 | R6H | 1.82
40 | R6I | 2.43
41 | R6T | 2.08
42 | R6L | 2.07
43 | R6G | 2.53
44 | R6S | 2.41
45 | R6F | 2.64
46 | R6W | 3.52
47 | R6M | 1.33
48 | R6D | 3.62

Row | Variant | protein stability index
49 | R6V | 1.74
50 | R6K | 1.97
51 | R6N | 2.58
52 | R6P | 2.66
53 | R6E | 2.9
54 | R6A | 2.07
55 | R6C | 2.26
56 | R6Q | 2
57 | R6Y | 2.25
58 | R7G | 2.7
59 | R7N | 2.78
60 | R7S | 2.42
61 | R7F | 2.59
62 | R7C | 1.55
63 | R7Q | 2.48
64 | R7I | 1.42
65 | R7E | 2.81
66 | R7L | 2.16
67 | R7P | 3.01
68 | R7W | 2.53
69 | R7K | 2.23
70 | R7Y | 2.06
71 | R7H | 1.9
72 | R7T | 2.08

Row | Variant | protein stability index
73 | R7M | 2.14
74 | R7A | 2.17
75 | R7D | 3.92
76 | R7V | 1.64
77 | I5T | 2.61
78 | I5H | 2.82
79 | I5G | 2.09
80 | I5Q | 2.09
81 | I5Y | 2.45
82 | I5N | 3.13
83 | I5F | 2.51
84 | I5M | 2.29
85 | I5C | 2.15
86 | I5K | 2.65
87 | I5V | 1.85
88 | I5S | 2.52
89 | I5L | 2.12
90 | I5D | 3.16
91 | I5E | 3.46
92 | I5W | 3.7
93 | I5A | 1.86
94 | I5P | 2.24
95 | I5R | 2.27
96 | A12F | 2.15

Row | Variant | protein stability index
97 | A12C | 1.94
98 | A12G | 2.46
99 | A12H | 2.16
100 | A12E | 2.55
101 | A12I | 1.78
102 | A12K | 1.81
103 | A12D | 2.49
104 | A12L | 1.87
105 | A11I | 1.94
106 | A11M | 1.83
107 | A11H | 2.33
108 | A11N | 2.35
109 | A11E | 1.87
110 | A11P | 2.29
111 | A11G | 2.08
112 | A11Y | 2.36
113 | A11Q | 2.03
114 | A11W | 2.04
115 | A11D | 1.98
116 | A11R | 1.74
117 | A11L | 1.74
118 | A11C | 2.06
119 | A11T | 1.94
120 | A11K | 2.36

Row | Variant | protein stability index
121 | A11S | 1.95
122 | A11F | 2.11
123 | A11V | 2.61
124 | A3V | 2.05
125 | A3T | 2.16
126 | A3Y | 1.75
127 | A3R | 1.89
128 | A3W | 2.19
129 | A3S | 2.43
130 | C10R | 2.78
131 | C10P | 2.88
132 | C10A | 3.13
133 | C10Y | 2.17
134 | C10G | 3.46
135 | C10K | 3.42
136 | C10M | 1.97
137 | C10V | 2.07
138 | C10E | 3.78
139 | C10D | 3.2
140 | C10L | 2.28
141 | C10N | 2.73
142 | C10W | 1.44
143 | C10S | 2.92
144 | C10H | 2.92

Row | Variant | protein stability index
145 | C10Q | 2.69
146 | C10F | 2.14
147 | C10T | 2.73
148 | C10I | 2.38
149 | C8Q | 3.23
150 | C8N | 3.41
151 | C8E | 3.93
152 | C8R | 2.99
153 | C8D | 3.89
154 | C8W | 2.48
155 | C8A | 3.5
156 | C8I | 2.21
157 | C8V | 2.67
158 | C8P | 3.49
159 | C8K | 3.48
160 | C8S | 3.03
161 | C8L | 2.38
162 | C8M | 2.05
163 | C8H | 2.91
164 | C8F | 2
165 | C8G | 2.87
166 | C8T | 3.06
167 | C8Y | 2.07
